{
  "source": "paper PMC9190259",
  "origin": "cited, not measured here",
  "molecular_target": "TNFα (Homo sapiens) (UniProt P01375)",
  "sequence (P01375 77-233)": "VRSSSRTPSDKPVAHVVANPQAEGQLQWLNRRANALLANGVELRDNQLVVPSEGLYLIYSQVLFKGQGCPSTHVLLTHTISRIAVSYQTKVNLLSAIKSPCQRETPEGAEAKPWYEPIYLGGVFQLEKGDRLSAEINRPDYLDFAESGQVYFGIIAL",
  "data": [
    {"substance": "Certolizumab Fab", "values": [
      {"measurement": "Kd", "value": 0.09, "unit": "nM"}
    ]}
  ]
}
